# According to the RNAGym collection of RNA variant scans (doi:10.1021/acssynbio.7b00057):
# B1: Pistol ribozyme (parent)
# chain: GGGUCGUUGUUCCAUAAUCGCGUGGAUAUGGCACGCAAGUUUCUACCGGGCACCGUAAAUGUCCGACUGGAGCCGUUCGGGCGGCUAUAAACAGACCUCAGGCCCGAAGCGUGGCGGCACCUGCCGCCGGUGGUAAAAAAGAUCGGAAGAGCACACGUCU
# Variants of: B1
# Assay: aptazyme ON/OFF ratio, guanine; higher = stronger switching; co-transcriptional cleavage with and without guanine
row,Variant,aptazyme ON/OFF ratio
1,U7G G9C U11C C12G C13U,1.36
2,U7G U8G G9C U10G U11A C12G C13U,1.16
3,U7G G9U U10C U11A C13A,1.34
4,U8A G9A U10C U11A C12U C13A,1.31
5,U7A U8C G9U U10C U11C C12U C13U,1.1
6,U7C U8A G9C,1.04
7,U7A G9U U10C U11A C12A C13G,1.15
8,U7C U8G G9U U11G C12A C13G,1.24
9,U8G U10C C13G,1.04
10,U7C U8G U11C C12A C13A,1.28
11,U7G U8A U11C C12G,1.24
12,U7C U8C G9A U11G C12G,1.35
13,U7C U10G C13A,1.2
14,U7A U8G G9U U10C U11C C12U C13A,1.14
15,U7A G9U U10A U11A C12U C13A,1.3
16,U7G G9C U10C U11A C12A,1.46
17,U7G U8G G9C U10G U11C C12A,1.25
18,U7G U8C U11G,1.01
19,U7G U8C G9A U10A U11A C13A,1.09
20,U7A G9A U10A U11G C13U,1.12
21,U7C U8A G9A U10C U11C C13G,1.05

row,Variant,aptazyme ON/OFF ratio
1,U7A U8C G9C U10C U11C C12A,1.05
2,U7C U10C U11G C12A C13A,1.11
3,G9C U10G U11C C12G C13U,1.15
4,U7G G9U U11C C12A,1.61
5,G9U U11C C12U C13A,1.51
6,U7A U8A G9C U10G U11A C12U C13G,1.13
7,U8G U10A U11A C13A,1.2
8,U7C G9U U11A C13A,1.2
9,U7G U8A G9A U10A U11G C12G C13U,1.17
10,G9C U11G C12U C13U,1.41
11,G9A U10C C12A C13G,1.29
12,U7G U8A G9C U10G U11G C12G,1.06
13,U7C G9U U10A C12U C13A,1.15
14,U7C G9A C12U C13U,1.22
15,U8A G9C U10G U11G C12A C13A,1.13
16,U7A G9A U11G C12G C13A,1.17
17,U7A U8G G9U U10A U11A C12G C13A,1.36
18,U7G U8G G9U U11G,2.02
19,U7G U8G U11A C13G,1.24
20,U7C G9U U10G U11A C12U C13A,1.19
21,U11A C12A C13G,1.53

row,Variant,aptazyme ON/OFF ratio
1,U7A U8A G9A U11A C13U,1.19
2,U7C U8A G9A U10G U11G C12G C13G,1.23
3,U7G U8G G9C U10A U11G,1.11
4,U7C G9C U10G U11C C12U,1.11
5,U8C G9C U10C U11A C12U C13U,1.01
6,U7G U8A G9C U10C U11G C12A,1.08
7,U7G U8C G9C C12A C13A,1.15
8,U7G G9A C12G C13A,1.13
9,U7C U8C G9C U10C U11C C12G C13G,1.19
10,U7A U8A G9A U10A U11C C13U,1.08
11,U7C U8A G9C U10G U11C C12A,1.29
12,U7C U8G G9C U10A U11A C13A,1.15
13,U7C U11A C13A,1.21
14,U8G G9A U10A U11C C13U,1.01
15,U7A U8C U11G C13U,1.21
16,U7G U8C G9A U10G U11G C13G,1.28
17,U7C U8G G9U U10C U11A C12G C13U,1.2
18,U10A U11A C13U,1.35
19,U7G U8C U10G U11A C12A C13A,1.11
20,U7G U8G G9U U10A U11A C12A C13U,1.29
21,U7C U8A U10A C12U,1.13

row,Variant,aptazyme ON/OFF ratio
1,U7A U8C U10C U11C C13A,1.03
2,U8G G9A U10C C12A C13A,1.2
3,U7G U8G G9C U11G C12G C13G,1.24
4,U7A U10C U11A C12A,1.23
5,U8A G9C U10A U11A C12A C13A,1.21
6,U8A G9U U11C C13U,1.03
7,U7C U8C G9A U10C U11A,1.8
8,U7G U8A G9U U10A C12U,1.03
9,U7A G9U U10C U11A C12U C13U,1.22
10,U7C G9A U10A C12U,1.35
11,U8A G9C U11A C12U C13U,1.15
12,U7C U8A G9A U10A C12G,1.21
13,U7A G9U U11A C12G C13G,1.12
14,U7A U8G U10G U11C C12A C13G,1.11
15,U7G G9C U10G U11C C12A C13U,1.33
16,U7A U8G G9U U10G U11A C12U C13U,1.42
17,U10A U11A C12G C13U,1.23
18,U7A U8G G9C U10G U11C C13G,1.08
19,U7G U8C,1.32
20,U8C G9C U10G U11G C13U,1.07
